From patent publication US7670806B2, “ADP-ribosyl acceptor hydrolase 3 (ARH3) polypeptides and methods of use” (The United States of America as represented by the …, priority 2005, dated 2010)
“Also recorded” adds a separate entry of the source.

Assays:
ADP-ribose binding assay = conditions: 1 μM ARH3, 3 μM [14C]ADP-ribose, 30° C., 16 h
Method: ADP-ribose binding assay. [^14C]ADP-ribose was generated by incubation overnight at 30° C. of 80 μM (10 μCi) [adenine-U-^14C]NAD with 50 μl of RT6.2 solution (5 nmol/h NADase activity; gift from Dr. Sunhee Park, NHLBI, National Institutes of Health, Bethesda, Md.) in 250 μl of 50 mM potassium phosphate, pH 7.5, and purified by HPLC using Zorbax Sax column as described above. [^14C]ADP-ribose, eluted at 40 min, was stored at −20° C.
To assess protein binding, 1 μM human wild type or D77N/D78N mutant ARH3 was incubated (30° C., 16 h) with 3 μM [^14C]ADP-ribose in 50 mM potassium phosphate buffer, pH 7.5, without or with 10 mM MgCl2, and/or 5 mM DTT (total volume 100 μl). A sample (90 μl) was applied to a column (0.5×4 cm) of Affi-Gel boronate (100 mg, Bio-Rad) which was equilibrated with 0.1 M glycine, pH 9.0, containing 0.1 M NaCl, with or without 10 mM MgCl2, and/or 5 mM DTT, and eluted with five 1-ml portions of the same solution. The total eluate, containing ARH with bound ADP-ribose was collected for liquid scintillation counting.
After incubation of wild-type or mutant ARH3 (1 μM) with [^14C]ADP-ribose (3 μM) (30° C., 16 h) without or with 10 mM MgCl2 and/or 5 mM DTT (total volume 100 μl), unbound ADP-ribose was removed by binding to Affi-gel boronate (Bio-Rad), and ARH3 with ADP-ribose bound, was collected for radioassay. […]

[1] = Poly(ADP-ribose) hydrolysis (autoradiography, high resolution PAGE, HPLC); assay type: biochemical; conditions: [32P]poly(ADP-ribose) or poly(ADP-ribose)PARP; 37° C.; autoradiography / PAGE / HPLC
Method: Poly(ADP-ribose) hydrolysis by autoradiography. [^32P]poly(ADP-ribose)PARP (500 ng of PARP with poly(ADP-ribose) was incubated (37° C., 2 h) with 2 μM ARH in 25 μl of 50 mM potassium phosphate buffer, pH 7.5, with or without 10 mM MgCl2 and/or 5 mM DTT. Reactions were stopped by adding 6 μl of 5× Laemmli buffer. Samples (20 μl) of proteins were separated by SDS-PAGE in 4-20% gels and transferred to nitrocellulose membranes that were exposed to X-ray film (Kodak) for 10 h.
Hydrolysis of poly(ADP-ribose) by PARG and ARH3. Purified [^32P] poly(ADP-ribose) (5.5×10^5 cpm, ˜300 nM ADP-ribose) was incubated for the indicated time at 37° C. in 25 μl of 50 mM potassium phosphate, pH 7.5, containing 10 mM MgCl2 and 5 mM DTT with enzyme or other additions as indicated and terminated by addition of 25 μl of 2× electrophoresis buffer (Invitrogen). [^32P]AMP was generated by incubation (37° C., 3 h) of 10 μM [^32P] NAD (10 μCi/reaction) with pyrophosphatase (40 units/mg from SIGMA, 1 mg/ml) in 25 μl of 50 mM KPO4, pH 7.5, and 10 mM MgCl2. [^32P] ADP-ribose was generated in a 25 μl mixture containing 50 mM KPO4, pH 7.5, 25 μg of activated CTA, 10 μM [^32P] NAD (10 μCi/reaction), 10 mM MgCl2, and 5 mM DTT, which was incubated at 30° C. overnight. [^32P] phosphoribosyl-AMP was generated by incubation (37° C., 3 h) of [^32P]poly(ADP-ribose) (5.5×10^5 cpm, ˜300 nM ADP-ribose) with Crotalus adamanteus phosphodiesterase (10 mU/reaction), 25 μl of 50 mM KPO4, pH 7.5, 10 mM MgCl2, and 5 mM DTT. Identities of AMP and ADP-ribose standards were confirmed by HPLC on C18 and SAX columns respectively.
High resolution Polyacrylamide Gel Electrophoresis (PAGE). Polyacrylamide (20%) gels (20×20×0.15 cm) containing polyacrylamide and bis(acrylamide), in a ratio of 19:1, 100 mM Tris-borate, pH 8.3, 2 mM EDTA, 4.4 mM ammonium persulfate, and 3.4 mM TEMED with electrophoresis carried out for 2 h at 400V with 50 mM Tris-borate, pH 8.3, 1 mM EDTA, before application of samples (15 μl) were used for analysis of poly(ADP-ribose) degradation. Subsequent electrophoresis at 400V was stopped when bromophenol blue (BPB) had moved 9 cm from the origin. Gels were exposed to X-ray films (Kodak).
HPLC analysis. HPLC, Hewlett-Packard series 1100 equipped with a diode-array spectrophotometric detector set at 254 nm, was used for separation of reaction products. For anion exchange perfusion chromatography, Zorbax SAX column (4.6×250 mm; DuPont, Wilmington Del.) was washed with 20 mM potassium phosphate, pH 4.5, for 30 min, followed by a linear gradient of 0-1M NaCl in the same buffer for 10 min (30-40 min), then same buffer with 1M NaCl for 10 min (40-50 min) at a flow rate of 1 ml/min. Nicotinamide was eluted at 3 min, NAD at 10 min, and ADP-ribose at 40 min. For reverse phase, Discovery C18 column (4.6×250 mm; SUPELCO, Bellefonte Pa.) was used. Samples were separated isocratically with 100 mM potassium phosphate, pH 6.0 containing 7% methanol at a same flow rate of 1 ml/min. ADP-ribose was eluted at 6 min, NAD at 8 min, nicotinamide 9 min.
Poly(ADP-ribose)PARP was used as substrate to assay potential poly(ADP-ribose) hydrolase activities of recombinant ARH1, 2 or 3. Products were identified by autoradiography and HPLC. Fractions (1 ml) were collected for liquid scintillation counting to quantify [^14C]ADP-ribose, which was eluted in fractions from 34 min to 43 min. Because ARH1 activity may require both DTT and Mg^2+, depending on species (Takada et al. (1993) J. Biol. Chem. 268:17837-17843; Moss et al. (1992) J. Biol. Chem. 267:10481-10488), these reactions were performed with or without 10 mM MgCl2, and/or 5 mM DTT. […] Degradation of [^32P]poly(ADP-ribose) by ARH3 was enhanced by 10 mM MgCl2 (FIG. 4A). Data were similar with mouse ARH3.
Samples of [^14C] ADP-ribosylated PARP (250 ng, 15,000 cpm, ˜850 nM ADP-ribose) were incubated at 37° C. (total volume, 100 μl) with human ARH3 as indicated. […]

B1: ARH3 (D77N/D78N): human ARH3 mutant with dual amino acid replacement D77N/D78N (protein)
chain: MAAAAMAAAAGGGAGAARSLSRFRGCLAGALLGDCVGSFYEAHDTVDLTSVLRHVQSLEPDPGTPGSERTEALYYTNNTAMARALVQSLLAKEAFDEVDMAHRFAQEYKKDPDRGYGAGVVTVFKKLLNPKCRDVFEPARAQFNGKGSYGNGGAMRVAGISLAYSSVQDVQKFARLSAQLTHASSLGYNGAILQALAVHLALQGESSSEHFLKQLLGHMEDLEGDAQSVLDARELGMEERPYSSRLKKIGELLDQASVTREEVVSELGNGIAAFESVPTAIYCFLRCMEPDPEIPSAFNSLQRTLIYSISLGGDTDTIATMAGAIAGAYYGMDQVPESWQQSCEGYEETDILAQSLHRVFQKS
ADP-ribose binding assay
  [14C]ADP-ribose binding: similar
[1]
  Poly(ADP-ribose) hydrolysis (in words): inactive; also recorded: No activity
